Our source for the Kd values is patent publication US20170298124A1, “ANTIBODIES AGAINST PATHOLOGICAL FORMS OF TDP-43 AND USES THEREOF” (Academia Sinica, published 2017).

Series [1] has as its target TDP-43s short-form TDP-43 (RRM1-RRM2) (Mus musculus, UniProt Q921F2 Q921F2:101-265). The experiment in a line: intrinsic fluorescence titration (ex 280, em 350 nm), 1.5 uM protein, 30 mM Tris-HCl pH 8. Conditions: tags: prepared per Kuo et al 2009.
Series [2] has as its target TDP-43 full-length (oligomers) (Homo sapiens, UniProt Q13148 Q13148:1-414). The experiment in a line: intrinsic fluorescence titration (ex 280, em 350 nm), 1.5 uM protein, 30 mM Tris-HCl pH 8; residual binding may come from minor monomer population. Conditions: chain copies: oligomer (stated); 1:1 stoichiometry of TDP-43 and ssDNA from fit.

TDP-43 full-length (oligomers), sequence (Q13148 whole entry, one chain of several): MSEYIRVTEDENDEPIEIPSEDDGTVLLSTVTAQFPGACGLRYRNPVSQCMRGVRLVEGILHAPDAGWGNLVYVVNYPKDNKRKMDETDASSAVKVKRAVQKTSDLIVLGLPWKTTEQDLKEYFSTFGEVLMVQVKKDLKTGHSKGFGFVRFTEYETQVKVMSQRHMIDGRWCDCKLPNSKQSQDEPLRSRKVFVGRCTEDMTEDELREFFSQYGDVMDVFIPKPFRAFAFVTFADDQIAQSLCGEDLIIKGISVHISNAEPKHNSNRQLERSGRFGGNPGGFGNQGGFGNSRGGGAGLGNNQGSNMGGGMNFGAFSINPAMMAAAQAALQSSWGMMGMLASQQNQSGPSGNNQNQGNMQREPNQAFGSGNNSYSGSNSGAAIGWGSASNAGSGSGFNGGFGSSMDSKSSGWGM

As a reminder, the Kd is the equilibrium constant for the complex coming apart. Low values mean a tighter complex, high ones a looser complex. In the case of TGGGTCTCTCTG (ssDNA) [TAR DNA B-site], the Kd in series [1] came out at 0.38 µM; in series [2], 6.27 µM.

On to CTTTTTGCCTGT (ssDNA) [TAR DNA A-site], for which the Kd is 0.2 µM in series [1] and 7.05 µM in series [2].
